Experimental data: patent US20210395381A1 (OSSIANIX, published 2021)
Residue numbers refer to the chain shown, from its start.

B1: Clone 8.1 (VNAR)
VNAR: ARVDQTPQTITKETGESLTINCVLRDSNCALPSTYWYRKKSGSTNEESISKGGRYVETVNSGSKSFSLRINDLTVEDSGTYRCKVLRLLSSILRGCNYRKHDVYGDGTAVTVNA
notes: VNAR on phage; Clone 8 framework
B2: Clone 8.43 (VNAR)
VNAR: B1 VNAR with L86I, R87A, L88Q, R94K, G95P, N97W
notes: as for B1
B3: Clone 8.15 (VNAR)
VNAR: B1 VNAR with L86M, R87W, L88N
notes: as for B1
B4: Clone 8.29 (VNAR)
VNAR: B1 VNAR with L86I, R87A, L88Q, R94L, G95T, N97E
notes: as for B1
B5: Clone 8.34 (VNAR)
VNAR: B1 VNAR with L86I, R87A, L88Q, R99I, K100A, H101Y
notes: as for B1
B6: Clone 8.8 (VNAR)
VNAR: B1 VNAR with L86F, R87A, L88P
notes: as for B1
B7: Clone 8.12 (VNAR)
VNAR: B1 VNAR with L86R, R87W, L88R
notes: as for B1
B8: Clone 8.24 (VNAR)
VNAR: B1 VNAR with L86I, R87A, L88Q, R99F, K100F, H101P
notes: as for B1
B9: Clone 8.35 (VNAR)
VNAR: B1 VNAR with L86I, R87A, L88E, S90F
notes: as for B1
B10: Clone 8.48 (VNAR)
VNAR: B1 VNAR with L86I, R87A, L88Q, R99M, K100M, H101Y
notes: as for B1
B11: Clone 8.17 (VNAR)
VNAR: B1 VNAR with L86I, R87A, L88Y, L89R, S90K, L93V
notes: as for B1
B12: Clone 8.16 (VNAR)
VNAR: B1 VNAR with L86I, R87A, L88K, S90F, R94C
notes: as for B1
B13: Clone 8.14 (VNAR)
VNAR: B1 VNAR with L86I, R87A, L88Q, R94G, G95Y, N97Y
notes: as for B1
B14: Clone 8.137 (VNAR)
VNAR: B1 VNAR with L86I, R87A, L88Q, R99F, K100G, H101K
notes: as for B1
B15: Clone 8.32 (VNAR)
VNAR: B1 VNAR with L86I, R87A, L88Q, L93W, R94K, N97K
notes: as for B1
B16: Clone 8.26 (VNAR)
VNAR: B1 VNAR with L86I, R87A, L88S, L89A, S90F
notes: as for B1
B17: Clone 8.27 (VNAR)
VNAR: B1 VNAR with L86Q, R87G, L88M
notes: as for B1
B18: Clone 8.39 (VNAR)
VNAR: B1 VNAR with L86I, R87A, L88Q, R94D, G95D, N97E
notes: as for B1
B19: Clone 8.6 (VNAR)
VNAR: B1 VNAR with L86I, R87A, L88Q, L89W, S90W
notes: as for B1
B20: Clone 8.45 (VNAR)
VNAR: B1 VNAR with L86I, R87A, L88Q, R99N, K100M, H101E
notes: as for B1
B21: Clone 8.52 (VNAR)
VNAR: B1 VNAR with L86I, R87A, L88Q, N97D, Y98R, R99W
notes: as for B1
B22: Clone 8.49 (VNAR)
VNAR: B1 VNAR with L86I, R87A, L88E, L89M, S90G
notes: as for B1
B23: Clone 8.28 (VNAR)
VNAR: B1 VNAR with L86A, R87F, L88I
notes: as for B1
B24: Clone 8.21 (VNAR)
VNAR: B1 VNAR with L86I, R87A, L88H, I92F, L93R, R94D
notes: as for B1
B25: Clone 8.46 (VNAR)
VNAR: B1 VNAR with L86I, R87A, L88Q, I92Y, L93V, R94V
notes: as for B1
B26: Clone 8.42 (VNAR)
VNAR: B1 VNAR with L86I, R87A, L88Q, S90F, S91I, I92D
notes: as for B1
B27: Clone 8.10 (VNAR)
VNAR: B1 VNAR with L86I, R87A, L88Q, S90A, S91I, I92E
notes: as for B1
B28: Clone 8.51 (VNAR)
VNAR: B1 VNAR with L86I, R87A, L88Q, I92D, L93H, R94P
notes: as for B1
B29: Clone 8.25 (VNAR)
VNAR: B1 VNAR with L86I, R87A, L88Q, I92M, L93E, R94L
notes: as for B1
B30: Clone 8.13 (VNAR)
VNAR: B1 VNAR with L86I, R87A, L88Q, S90A, S91L, I92A
notes: as for B1
B31: Clone 8.9 (VNAR)
VNAR: B1 VNAR with L86W, R87N, L88M
notes: as for B1
B32: Clone 8.30 (VNAR)
VNAR: B1 VNAR with L86S, R87M
notes: as for B1
B33: Clone 8.97 (VNAR)
VNAR: B1 VNAR with L86I, R87A, L88Q, R99N, K100I, H101D
notes: as for B1
B34: Clone 8.3 (VNAR)
VNAR: B1 VNAR with L86V, L88F
notes: as for B1
B35: Clone 8.4 (VNAR)
VNAR: B1 VNAR with L86K, R87L, L88W
notes: as for B1
B36: Clone 8.31 (VNAR)
VNAR: B1 VNAR with L86I, R87A, L88Q, S90I, Y98K, R99N
notes: as for B1
B37: Clone 8.37 (VNAR)
VNAR: B1 VNAR with L86I, R87A, L88Q, I92Q, L93R, R94W
notes: as for B1
B38: Clone 8.33 (VNAR)
VNAR: B1 VNAR with L86R, R87D, L88A
notes: as for B1
B39: Clone 8.2 (VNAR)
VNAR: B1 VNAR with R87F, L88N
notes: as for B1
B40: Clone 8.47 (VNAR)
VNAR: B1 VNAR with L86Q, R87T, L88T
notes: as for B1
B41: Clone 8.18 (VNAR)
VNAR: B1 VNAR with L86I, R87A, L88Q, I92K, L93Y, R94V
notes: as for B1
B42: Clone 8.5 (VNAR)
VNAR: B1 VNAR with L86I, R87A, L88Q, S90G, S91W, I92W
notes: as for B1
B43: Clone 8.7 (VNAR)
VNAR: B1 VNAR with L86I, R87A, L88Q, R94K, G95A, N97K
notes: as for B1
B44: Clone 8.38 (VNAR)
VNAR: B1 VNAR with L86I, R87A, L88Q, S90V, S91L, I92N
notes: as for B1
B45: Clone 8.23 (VNAR)
VNAR: B1 VNAR with L86I, R87A, L88Q, S90P, S91K, I92Q
notes: as for B1
B46: Clone 8.20 (VNAR)
VNAR: B1 VNAR with L86I, R87A, L88Q, N97L, Y98D, R99K
notes: as for B1
B47: Clone 8.19 (VNAR)
VNAR: B1 VNAR with L86Q, R87S, L88Q, S91I, I92V
notes: as for B1
B48: Clone 8.22 (VNAR)
VNAR: B1 VNAR with L86I, R87A, L88Q, L89Q, S90K, R99H
notes: as for B1
B49: Clone 8.40 (VNAR)
VNAR: B1 VNAR with L86I, R87A, L88Q, S90Y, S91V, I92G
notes: as for B1
B50: Clone 8.41 (VNAR)
VNAR: B1 VNAR with L86I, R87A, L88P, L89Q, S90K, R99H, H101I
notes: as for B1
B51: Clone 8.44 (VNAR)
VNAR: B1 VNAR with L86I, R87A, L88Q, R99L, K100S, H101M
notes: as for B1
B52: Clone 8.36 (VNAR)
VNAR: B1 VNAR with L86I, R87A, L88Q, R99W, K100R, H101W
notes: as for B1
B53: Clone 8.50 (VNAR)
VNAR: B1 VNAR with L86I, R87A, L88N
notes: as for B1
B54: Clone 8.11 (VNAR)
VNAR: B1 VNAR with L86I, R87A, L88Q, L93Y, R94P
notes: as for B1

target: T1, recombinant human TfR-1 (human, UniProt P02786 89-760); assay: phage ELISA
T1 construct: Recombinant protein coated at 1 ug/ml in the phage ELISA; also called hTfR1; human transferrin receptor-1
T1 sequence (P02786 89-760 limits assumed): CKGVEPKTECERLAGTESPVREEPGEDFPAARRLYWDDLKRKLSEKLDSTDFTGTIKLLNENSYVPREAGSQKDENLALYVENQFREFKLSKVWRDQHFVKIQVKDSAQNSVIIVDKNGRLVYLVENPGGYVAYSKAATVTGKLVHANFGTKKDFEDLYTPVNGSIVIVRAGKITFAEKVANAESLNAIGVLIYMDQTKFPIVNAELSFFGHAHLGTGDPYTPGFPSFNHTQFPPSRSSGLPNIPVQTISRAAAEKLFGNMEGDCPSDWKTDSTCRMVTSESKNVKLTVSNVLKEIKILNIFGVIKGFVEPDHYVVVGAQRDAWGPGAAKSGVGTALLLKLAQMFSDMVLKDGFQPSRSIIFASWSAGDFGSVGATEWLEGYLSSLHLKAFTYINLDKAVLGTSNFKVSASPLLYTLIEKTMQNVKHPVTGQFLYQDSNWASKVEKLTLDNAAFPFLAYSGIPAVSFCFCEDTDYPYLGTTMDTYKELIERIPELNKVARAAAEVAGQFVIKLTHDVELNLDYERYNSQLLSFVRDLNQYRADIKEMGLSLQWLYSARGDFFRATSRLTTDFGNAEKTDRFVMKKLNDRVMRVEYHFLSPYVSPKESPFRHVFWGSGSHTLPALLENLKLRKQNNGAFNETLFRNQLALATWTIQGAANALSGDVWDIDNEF

Binder	A450 [A450]
B1	0.371
B2	0.093
B3	0.095
B4	0.059
B5	0.078
B6	0.103
B7	0.108
B8	0.093
B9	0.078
B10	0.082
B11	0.091
B12	0.138
B13	0.067
B14	0.076
B15	0.065
B16	0.087
B17	0.079
B18	0.063
B19	0.199
B20	0.06
B21	0.049
B22	0.06
B23	0.085
B24	0.058
B25	0.056
B26	0.062
B27	0.072

Binder	A450 [A450]
B28	0.058
B29	0.06
B30	0.075
B31	0.119
B32	0.114
B33	0.057
B34	0.27
B35	0.173
B36	0.077
B37	0.069
B38	0.09
B39	0.315
B40	0.072
B41	0.06
B42	0.152
B43	0.087
B44	0.075
B45	0.055
B46	0.084
B47	0.078
B48	0.066
B49	0.066
B50	0.072
B51	0.056
B52	0.058
B53	0.057
B54	0.066

target: T2, recombinant mouse TfR-1 (mouse, UniProt Q62351 89-763); assay: phage ELISA
T2 construct: Recombinant protein coated at 1 ug/ml in the phage ELISA; also called mTfR1; mouse transferrin receptor-1
T2 sequence (Q62351 89-763 limits assumed): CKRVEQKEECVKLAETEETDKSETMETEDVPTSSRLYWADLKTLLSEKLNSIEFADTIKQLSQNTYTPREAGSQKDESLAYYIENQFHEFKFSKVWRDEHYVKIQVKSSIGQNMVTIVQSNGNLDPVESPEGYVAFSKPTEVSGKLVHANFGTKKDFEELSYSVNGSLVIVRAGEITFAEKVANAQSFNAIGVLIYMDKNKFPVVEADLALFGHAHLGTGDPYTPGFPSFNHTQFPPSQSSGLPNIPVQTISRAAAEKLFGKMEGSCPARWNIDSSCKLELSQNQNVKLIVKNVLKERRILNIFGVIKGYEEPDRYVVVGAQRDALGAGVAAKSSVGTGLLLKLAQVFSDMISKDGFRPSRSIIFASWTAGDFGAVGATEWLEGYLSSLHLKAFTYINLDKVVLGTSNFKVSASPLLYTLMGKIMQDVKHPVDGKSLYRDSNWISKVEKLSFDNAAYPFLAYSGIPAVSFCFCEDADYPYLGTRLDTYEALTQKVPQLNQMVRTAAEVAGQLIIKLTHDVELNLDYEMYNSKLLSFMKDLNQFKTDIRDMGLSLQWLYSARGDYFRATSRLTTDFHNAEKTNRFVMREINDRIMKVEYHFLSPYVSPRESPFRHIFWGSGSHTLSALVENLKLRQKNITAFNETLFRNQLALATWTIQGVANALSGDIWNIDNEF

Binder	A450 [A450]
B1	0.312
B2	0.067
B3	0.095
B4	0.077
B5	0.072
B6	0.118
B7	0.1
B8	0.084
B9	0.071
B10	0.066
B12	0.092
B13	0.095
B15	0.074
B16	0.082
B17	0.08
B18	0.07
B19	0.164
B20	0.067
B21	0.065
B22	0.065
B23	0.077
B24	0.086
B25	0.067
B26	0.068
B27	0.101
B28	0.065

Binder	A450 [A450]
B29	0.084
B30	0.096
B31	0.108
B32	0.077
B34	0.194
B35	0.188
B36	0.075
B37	0.071
B38	0.073
B39	0.242
B40	0.067
B41	0.09
B42	0.172
B43	0.123
B44	0.071
B45	0.085
B46	0.087
B47	0.088
B48	0.086
B49	0.07
B50	0.068
B51	0.067
B52	0.071
B53	0.065
B54	0.101
